Source: patent US11427643B2, “Targeted protein degradation” (GLAXOSMITHKLINE INTELLECTUAL PROPERTY DEVELOPMENT LIMITED, priority 2017, dated 2022)

Experiments:
[1] = tested on: NFAT-luc2 Jurkat cells; test: Lenalidomide-induced degradation of anti-BCMA CAR constructs transfected in Jurkat cells (flow cytometry, BCMA-Fc staining); type: cell-based; conditions: 10 μM lenalidomide vs DMSO, 24 hour, FIG. 5
Method: NFAT-luc2 Jurkat cells (Promega) to a density of 2×10^5 cells/ml were cultured in RPMI medium 1640 (1×) without L-glutamine with phenol red (Gibco), 10% (v/v) Fetal Bovine Serum (FBS) Heat-Inactivated (Gibco), 1% (v/v) Minimum essential medium non-essential amino acids (MEM NEAA) (ThermoFisher), 1% (v/v) Sodium Pyruvate (Sigma), 1% (v/v) L-Glutamine (Gibco). 20 μg of plasmid DNA was mixed with 8×10^6 NFAT-luc2 Jurkat cells and cells were transfected using the 4D-Nucleofector (Lonza) with cell Line SE Nucleofector kit (Lonza) by following manufacturer instructions with program CL-120. Cells were incubated at 37° C. with 5% CO2 for 48 h. Lenalidomide at a stock concentration of 10 mM in 100% DMSO was diluted in Jurkat media to achieve a stock concentration of 250 μM. Using the 250 μM stock, NFAT-luc2 Jurkat cells were incubated at a final compound concentration of 10 μM or 0 μM (DMSO in media) for 24 hour at 37° C. with 5% CO2. Final DMSO concentration was 0.1% in all wells. Cells were then stained with AlexaFluor 647 conjugated BCMA-Fc to label the anti-BCMA CAR. Measurements were made using a Cytoflex S (Beckman Coulter) and data analysed using FlowJo.

[2] = tested on: primary T-cells co-cultured with ARH-77-10B5 cells; test: Cytokine release from CAR-transduced primary T-cells co-cultured with BCMA-expressing ARH-77-10B5 cells, with or without lenalidomide (MSD V-plex); type: cell-based, human; conditions: 10 μM lenalidomide compared with no lenalidomide treatment; after antigen presentation, 24 h co-culture 1:1 with ARH-77-10B5; FIG. 7
Method: For lentiviral vector production, 3.0×10^7 LentiX 293T (HEK 293T) cells were seeded in 20 mL DMEM (Gibco) and were incubated overnight at 37° C. with 5% CO2. LentiX cells were transfected by mixing, for example, 21 μg of transfer vector containing the construct, 3.75 μg ViraSafe pRSV-Rev, 5.25 μg ViraSafe pCMV-VSVG, 7.5 μg ViraSafe pCgp V-(gag-pol), 75 μg jetPRIME (Polyplus) and […] jetPRIME Buffer (Polyplus). After 2 days, supernatants were clarified and virus was concentrated and purified by ultracentrifugation on a 20% sucrose cushion using Ultrapure sucrose (ThermoFisher) in 50 ml Oak Ridge PPCO ultracentrifugation tubes (ThermoFisher). Lentiviral vectors were produced for CONSTRUCT 4 and CONSTRUCT 5 using the method described above. […]
7 days after transduction, lenalidomide at a stock concentration of 10 mM in 100% DMSO was diluted in TEXMacs media to achieve a stock concentration of 250 μM, and 5×10^4 T-cells were incubated at a final compound concentration of 10 μM or 0 μM (DMSO in media) for 16 h at 37° C. with 5% CO2. […] Supernatants were analysed for cytokine levels using MSD V-plex Proinflammatory Panel 1 Human Kit (MSD) and MSD Sector Imager (MSD).

B1: CONSTRUCT 4: conventional anti-BCMA CAR: scFv, CD8a hinge and transmembrane, 4-1BB co-stimulatory, CD3 intracellular domains; no degron (control) (protein)
chain: MALPVTALLLPLALLLHAARPQVQLVQSGAEVKKPGSSVKVSCKGSGYTFTNYWMHWVRQAPGQGLEWIGATYRGHSDTYYNQKFKGRATLTADTSTSTAYMELSSLRSEDTAVYYCTRGAIYDGYDVLDNWGQGTLVTVSSGGGGSGGGGSGGGGSGGGGSDIQMTQSPSSLSASVGDRVTITCSASQDISNYLNWYQQKPGKAPKLLIYYTSNLHSGVPSRFSGSGSGTDFTLTISSLQPEDFATYYCQQYRKLPWTFGQGTKLEIKRFVPVFLPAKPTTTPAPRPPTPAPTIASQPLSLRPEACRPAAGGAVHTRGLDFACDIYIWAPLAGTCGVLLLSLVITLYCNHRNKRGRKKLLYIFKQPFMRPVQTTQEEDGCSCRFPEEEEGGCELRVKFSRSADAPAYQQGQNQLYNELNLGRREEYDVLDKRRGRDPEMGGKPRRKNPQEGLYNELQKDKMAEAYSEIGMKGERRRGKGHDGLYQGLSTATKDTYDALHMQALPPR
modifications: Construct 4 Amino Acid Sequence
[1]
  expression level of CAR molecules on the surface of Jurkat cells: unaffected
[2]
  TNFα, IL2 and IFN-γ levels in T-cell supernatants: increased levels of cytokines concentrations
